This note sets out measurements from patent publication US20260226161A1 (EXELIXIS, published 2026).

The target in experiment [1] is T1, NKG2A expressed on KHYG-1 cells (endogenous) (human, UniProt P26715 1-233; Q13241 1-179).
T1 construct: whole, on cells; Surface NKG2A copy number of approximately 10-20K; also called KHYG-1 cells expressing endogenous NKG2A; NKG2A-expressing cells
The experiment can be described thus: flow cytometry competition; inhibition of HLA-E tetramer binding to KHYG-1 cells; second of the two EC50 values printed for P12×A2; the patent does not say what tells them apart. The method, then:
(§1) 15 μL per well of binder dilution at 2× concentration was plated in a 96-well plate (Costar 3897). 15 μL per well of cell suspension at 5×10⁶ cells per mL was added. Plates were placed at 4° C. for 30 minutes. Following the incubation, 5 μL per well of Fc block (BD Pharmingen Cat #564220) was added at a final concentration of 500 ng per well. Plates were placed at 4° C. for 10 minutes. […] Plates were placed at 4° C. for 1 hour. Following the incubation, 100 μL per well of PBS was added and plate was centrifuged at 400×g for 7 minutes. Supernatant was removed by flicking the plate. Cells were resuspended in 50 μL per well of PBS and analyzed by flow cytometry (Intellicyt).
On the technique in general: Flow cytometry measures light scatter and fluorescence of single cells or particles in a stream.

Experiment [2] deals with T2, PD-L1 expressed on cells (UniProt Q9NZQ7 19-290, limits assumed). The experiment can be described thus: cell-based or functional assay.
The target in experiment [3] is T3, cynomolgus NKG2A/CD94 (soluble antigen of the equilibrium assay) (cynomolgus, UniProt Q68VD2 94-233; Q68VD4 32-179, Biotinylated in the Octet assays of Example 2; state in the SPR equilibrium assay not seen.).
T3 construct: also called Cyno NKG2A/CD94; copies: 1 + 1
The experiment can be described thus: SPR equilibrium response, Langmuir isotherm; antibody on chip, soluble antigen. The protocol:
In addition, a method using an equilibrium approach was performed. Kd determinations for cynomolgus NKG2A/CD94 were performed by measuring the signal response at equilibrium. […] The equilibrium response signals and corresponding antigen concentrations were then input into a Langmuir binding isotherm model, and the Kd was determined through nonlinear regression. Averages and standard deviations were calculated from 24 replicate chip locations for each molecule.

In experiment [4] the target is T2, PD-L1 expressed on cells. The experiment is described as follows: flow cytometry on MC/CAR cells expressing PD-L1. The method, then:
(§2) Cells were collected by centrifugation at 400×g for 7 minutes and primary antibody was removed. 50 μL per well of AF488 goat anti human IgG Fab (Jackson Immuno Research 109-547-003) at 1:100 dilution was added. Plates were placed at 4° C. for 30 minutes.
(§3) Cells were collected by centrifugation at 400×g for 7 minutes and secondary antibody was removed. Cells were resuspended in 50 μL per well of PBS and analyzed by flow cytometry. Binding curves were calculated using the mean fluorescence intensity (MFI) of the FITC fluorescence signal on the cells. Bispecific antibody binding was evaluated in KHYG-1 cells expressing endogenous NKG2A and in MC/CAR cells expressing PD-L1. Cells were harvested and assayed for binding as described above.

The target in experiment [5] is T1, NKG2A expressed on KHYG-1 cells …. The experiment is described as follows: flow cytometry on KHYG-1 cells expressing endogenous NKG2A. The protocol:
as §2, §3

Experiment [6] concerns the target T4, Human PD-L1 with His tag (AcroBiosystems) (human, UniProt Q9NZQ7 19-238).
T4 construct: Bought protein; also called hPD-L1; not shown: His tag
The experiment is described as follows: SPR (Carterra), antibody on chip, soluble antigen.

Experiment [7] concerns the target T5, Human NKG2A & CD94 with mouse IgG2a Fc tag (AcroBiosystems) (human, UniProt P26715 94-233; Q13241 32-179, limits assumed).
T5 construct: Bought soluble antigen of the Carterra assay; also called hNKG2A; not shown: mouse IgG2a Fc tag
The experiment is described as follows: SPR (Carterra), antibody on chip, soluble antigen.

Experiment [8] addresses Cyno PD-L1 (cyno, UniProt G7PSE7 19-238). The experiment is described as follows: SPR (Carterra), antibody on chip, soluble antigen.
The target of experiment [9] is T1, NKG2A expressed on KHYG-1 cells …. The experiment is described as follows: flow cytometry competition; inhibition of HLA-E tetramer binding to KHYG-1 cells; first of the two EC50 values printed for P12×A2; the patent does not say what tells them apart. The method, then:
as §1

T4 sequence (Q9NZQ7 19-238 limits assumed): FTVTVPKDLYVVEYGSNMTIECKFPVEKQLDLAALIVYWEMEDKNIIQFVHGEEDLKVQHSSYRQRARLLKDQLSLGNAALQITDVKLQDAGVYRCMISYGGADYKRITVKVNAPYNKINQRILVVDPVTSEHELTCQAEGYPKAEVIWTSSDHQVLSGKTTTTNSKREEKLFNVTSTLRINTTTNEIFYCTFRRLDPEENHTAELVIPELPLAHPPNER
Chain of Cyno PD-L1 (G7PSE7 entry or part of it limits assumed): as the sequence (Q9NZQ7 19-238 limits assumed) above, with A33T, A34S, S62N, R68Q, Q82R, F173L, T185A, T192I, H215L counted along it
T1 sequence (P26715 whole entry, chain 1 of 2): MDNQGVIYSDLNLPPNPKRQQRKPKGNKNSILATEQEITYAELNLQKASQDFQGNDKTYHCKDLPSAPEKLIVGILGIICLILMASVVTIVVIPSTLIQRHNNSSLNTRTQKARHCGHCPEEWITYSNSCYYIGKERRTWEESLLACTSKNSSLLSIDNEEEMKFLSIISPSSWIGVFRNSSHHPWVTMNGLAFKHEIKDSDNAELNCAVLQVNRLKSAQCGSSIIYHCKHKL
T1 sequence (Q13241 whole entry, chain 2 of 2): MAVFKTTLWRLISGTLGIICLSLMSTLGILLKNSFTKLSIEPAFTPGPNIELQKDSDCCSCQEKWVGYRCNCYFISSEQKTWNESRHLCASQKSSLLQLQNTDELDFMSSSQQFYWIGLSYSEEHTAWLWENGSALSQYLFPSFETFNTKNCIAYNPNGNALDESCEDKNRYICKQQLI
T5 sequence (P26715 94-233 limits assumed, chain 1 of 2): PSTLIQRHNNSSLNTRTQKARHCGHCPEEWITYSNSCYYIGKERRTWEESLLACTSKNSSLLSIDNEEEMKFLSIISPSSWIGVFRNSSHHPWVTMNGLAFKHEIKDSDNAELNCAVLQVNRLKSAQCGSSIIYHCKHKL
T5 sequence (Q13241 32-179 limits assumed, chain 2 of 2): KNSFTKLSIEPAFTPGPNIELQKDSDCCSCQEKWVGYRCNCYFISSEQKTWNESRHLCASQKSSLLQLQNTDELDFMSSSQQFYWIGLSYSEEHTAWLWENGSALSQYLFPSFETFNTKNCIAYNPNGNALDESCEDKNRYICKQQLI
T2 sequence (Q9NZQ7 19-290 limits assumed): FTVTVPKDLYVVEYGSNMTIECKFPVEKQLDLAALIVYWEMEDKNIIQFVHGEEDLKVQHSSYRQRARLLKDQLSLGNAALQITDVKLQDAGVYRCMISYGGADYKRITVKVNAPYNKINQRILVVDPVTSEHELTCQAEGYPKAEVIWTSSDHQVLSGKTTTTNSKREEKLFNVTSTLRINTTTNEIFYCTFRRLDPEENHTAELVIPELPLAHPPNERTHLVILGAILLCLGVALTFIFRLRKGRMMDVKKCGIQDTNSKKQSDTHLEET
T3 sequence (NKG2A, as listed by the source limits assumed, chain 1 of 2): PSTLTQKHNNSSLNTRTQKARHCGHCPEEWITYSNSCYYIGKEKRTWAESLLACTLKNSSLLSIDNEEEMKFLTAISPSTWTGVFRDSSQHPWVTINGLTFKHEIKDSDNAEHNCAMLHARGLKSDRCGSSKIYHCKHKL
T3 sequence (CD94, as listed by the source limits assumed, chain 2 of 2): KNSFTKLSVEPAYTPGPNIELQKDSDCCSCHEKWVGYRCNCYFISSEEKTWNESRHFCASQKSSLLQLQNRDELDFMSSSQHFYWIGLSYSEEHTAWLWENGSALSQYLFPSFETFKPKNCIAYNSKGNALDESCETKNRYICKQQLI

B1: P12 × A2 (1 × 1 format) (bispecific antibody)
heavy 1: DIQMTQSPSSLSASVGDRVTITCRASQSVSSAVAWYQQKPGKAPKLLIYSASSLYSGVPSRFSGSRSGTDFTLTISSLQPEDFATYYCQQFMLEPITFGQGTKVEIKGQPREPQVCTLPPSRDELTKNQVSLTCLVRGFYPSDIAVEWESNGQPENNYKTTPPVLDSDGSFFLYSKLTVDKSRWQQGNVFSCSVMHEALHNHYTQKSLSLSPGKDKTHTCPPCPAPEAAGGPSVFLFPPKPKDTLMISRTPEVTCVVVDVSHEDPEVKFNWYVDGVEVHNAKTKPREEQYNSTYRVVSVLTVLHQDWLNGKEYKCKVSNKALKAPIEKTISKAKGQPREPQVYTLPPSREEMTKNQVSLSCAVKGFYPSDIAVEWESNGQPENNYKTTPPVLDSDGSFFLVSKLTVDKSRWQQGNVFSCSVMHEALHNHYTQKSLSLSPGK
light 1: EVQLVESGGGLVQPGGSLRLSCAASGFTFSSYYIHWVRQAPGKGLEWVATINSRGGFTLYADSVKGRFTISADTSKNTAYLQMNSLRAEDTAVYYCARGYTLTPVLDYWGQGTLVTVSSAQPREPQVYTLPPCRDWLTKNQVSLTCLVKGFYPSDIAVEWESNGQPENNYKTTPPVLDSDGSFFLYSKLTVDKSRWQQGNVFSCSVMHEALHNHYTQKSLSLSPGK
heavy 2: not shown
light 2: EVQLVESGGGLVQPGGSLRLSCAASGFTFSSYYIHWVRQAPGKGLEWVASYVPEDGYTDYADSVKGRFTISADTSKNTAYLQMNSLRAEDTAVYYCARSSDFIPWTSSGGMDYWGQGTLVTVSSASTKGPSVFPLAPSSKSTSGGTAALGCLVKDYFPEPVTVSWNSGALTSGVHTFPAVLQSSGLYSLSSVVTVPSSSLGTQTYICNVNHKPSNTKVDKKVEPKSC
notes: One PD-L1 site, one NKG2A site; also called P12×A2, sFc; P12 × A2 sFc
Usually EC50 stands for the midpoint of the concentration-response curve. In general, Kd refers to the equilibrium constant for the complex coming apart. A lower Kd goes with tighter binding. What is called koff is the rate constant with which the complex falls apart. A higher koff goes with fast dissociation. The kon is the rate constant with which the complex forms. With B1, the EC50 in [1] stood at 65.2 nM; in experiment [4], 55.9 nM; in [5], 4.66 nM; in [9] it was 21 nM. Also, the “IC50 of inhibiting PD-1/PD-L1 interaction in PD-L1+MDA-MB-231 cells (PD-1/PD-L1 Signaling Bioassay, chemiluminescent signal)” value in [2] turned out to be 0.408 nM. The Kd in [3] is 42 nM; in experiment [6] it was 0.13 nM; in experiment [7] it was 0.21 nM; in experiment [8] it was 0.1 nM. In addition, the koff in [6] was 7e-05 s⁻¹; in experiment [7], 8e-05 s⁻¹; in experiment [8], 6e-05 s⁻¹. Besides, the kon in experiment [6] is 530000 M⁻¹ s⁻¹; in experiment [7] it was 360000 M⁻¹ s⁻¹; in experiment [8], 560000 M⁻¹ s⁻¹.
